Source: patent US20120121608A1 (CALIFORNIA INSTITUTE OF TECHNOLOGY, published 2012)

B1: TNF receptor, endogenous, in HeLa cells (receptor, human, UniProt P19438 30-455, looked up)
chain: LVPHLGDREKRDSVCPQGKYIHPQNNSICCTKCHKGTYLYNDCPGPGQDTDCRECESGSFTASENHLRHCLSCSKCRKEMGQVEISSCTVDRDTVCGCRKNQYRHYWSENLFQCFNCSLCLNGTVHLSCQEKQNTVCTCHAGFFLRENECVSCSNCKKSLECTKLCLPQIENVKGTEDSGTTVLLPLVIFFGLCLLSLLFIGLMYRYQRWKSKLYSIVCGKSTPEKEGELEGTTTKPLAPNPSFSPTPGFTPTLGFSPVPSSTFTSSSTYTPGDCPNFAAPRREVAPPYQGADPILATALASDPIPNPLQKWEDSAHKPQSLDTDDPATLYAVVENVPPLRWKEFVRRLGLSDHEIDRLELQNGRCLREAQYSMLATWRRRTPRREATLELLGRVLRDMDLLGCLEDIEEALCGPAALPPAPSLLR
B2: TNF receptor, endogenous, in mouse embryonic fibroblasts (MEF) (receptor, UniProt P25118 30-454, looked up)
chain: LVPSLGDREKRDSLCPQGKYVHSKNNSICCTKCHKGTYLVSDCPSPGRDTVCRECEKGTFTASQNYLRQCLSCKTCRKEMSQVEISPCQADKDTVCGCKENQFQRYLSETHFQCVDCSPCFNGTVTIPCKETQNTVCNCHAGFFLRESECVPCSHCKKNEECMKLCLPPPLANVTNPQDSGTAVLLPLVILLGLCLLSFIFISLMCRYPRWRPEVYSIICRDPVPVKEEKAGKPLTPAPSPAFSPTSGFNPTLGFSTPGFSSPVSSTPISPIFGPSNWHFMPPVSEVVPTQGADPLLYESLCSVPAPTSVQKWEDSAHPQRPDNADLAILYAVVDGVPPARWKEFMRFMGLSEHEIERLEMQNGRCLREAQYSMLEAWRRRTPRHEDTLEVVGLVLSKMNLAGCLENILEALRNPAPSSTTRLPR
notes: also called TNF receptor complex
B3: Sam68, endogenous, in mouse embryonic fibroblasts (MEF) (other, UniProt Q60749 1-443, looked up)
chain: MQRRDDPASRLTRSSGRSCSKDPSGAHPSVRLTPSRPSPLPHRPRGGGGGPRGGARASPATQPPPLLPPSTPGPDATVVGSAPTPLLPPSATAAVKMEPENKYLPELMAEKDSLDPSFTHAMQLLSVEIEKIQKGESKKDDEENYLDLFSHKNMKLKERVLIPVKQYPKFNFVGKILGPQGNTIKRLQEETGAKISVLGKGSMRDKAKEEELRKGGDPKYAHLNMDLHVFIEVFGPPCEAYALMAHAMEEVKKFLVPDMMDDICQEQFLELSYLNGVPEPSRGRGVSVRGRGAAPPPPPVPRGRGVGPPRGALVRGTPVRGSITRGATVTRGVPPPPTVRGAPTPRARTAGIQRIPLPPTPAPETYEDYGYDDTYAEQSYEGYEGYYSQSQGESEYYDYGHGELQDSYEAYGQDDWNGTRPSLKAPPARPVKGAYREHPYGRY
notes: also called KHDRBS1

Assays:
[1] = target: T1, Sam68, endogenous, in human cells (HeLa, 293T) (human, UniProt Q07666 1-443); assay: immunoprecipitation of TNFR with anti-TNFR antibody from HeLa cells, immunoblot (FIG. 9E)
T1 construct: also called endogenous Sam68
Protocol: (§1) 20-25×10⁶ control and treated cells were lysed in a rotator at 4° C. for 30 minutes in the lysis buffer (1.0% Triton-X100, 20 mM HEPES (pH 7.6), 150 mM NaCl, 1 mM EDTA, 10% glycerol and complete protease inhibitor cocktail). The immunoprecipitates were washed thrice with the lysis buffer and boiled with LDS sample buffer (Invitrogen). Samples with the endogenous protein complexes were resolved in Novex 4-12% Bis-Tris gels (Invitrogen) and transferred to nitrocellulose membrane, probed using relevant antibodies and detected using the SuperSignal West Pico or West Femto Chemiluminescent Substrate System (Pierce). Detection of proteins in the immunoprecipitates with molecular weight close to the denatured heavy and light chains of immunoglobulins (50 kDa and 25 kDa respectively) was performed using native IgG detection reagent (Pierce). […] Additionally, membrane fractionation was performed on cells treated with TNF.

[2] = target: B3; assay: immunoprecipitation of endogenous Sam68 from MEF cells, immunoblot for TNFR (FIG. 10)
Protocol: as §1

[3] = target: T2, RIP, endogenous, in mouse embryonic fibroblasts (mouse, UniProt Q60855 1-656); assay: immunoprecipitation of Sam68 from TNF-treated MEF cells, probed for RIP (FIG. 15E)
T2 sequence (looked up): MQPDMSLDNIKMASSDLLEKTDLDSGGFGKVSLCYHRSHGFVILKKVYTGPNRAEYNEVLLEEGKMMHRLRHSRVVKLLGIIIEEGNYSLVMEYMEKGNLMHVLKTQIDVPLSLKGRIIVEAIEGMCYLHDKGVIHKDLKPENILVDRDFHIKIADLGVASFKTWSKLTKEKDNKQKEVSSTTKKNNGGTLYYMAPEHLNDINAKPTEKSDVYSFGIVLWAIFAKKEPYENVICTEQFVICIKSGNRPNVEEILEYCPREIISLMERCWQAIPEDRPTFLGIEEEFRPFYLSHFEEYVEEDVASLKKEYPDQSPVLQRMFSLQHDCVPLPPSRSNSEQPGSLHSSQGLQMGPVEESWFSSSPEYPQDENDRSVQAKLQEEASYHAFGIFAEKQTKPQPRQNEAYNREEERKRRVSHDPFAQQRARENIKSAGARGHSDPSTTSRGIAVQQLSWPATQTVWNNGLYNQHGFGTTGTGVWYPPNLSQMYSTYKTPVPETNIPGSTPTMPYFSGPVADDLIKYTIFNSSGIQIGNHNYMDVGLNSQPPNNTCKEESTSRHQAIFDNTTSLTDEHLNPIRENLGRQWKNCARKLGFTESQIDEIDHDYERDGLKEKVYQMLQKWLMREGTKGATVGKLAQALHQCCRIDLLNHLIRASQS

B1: binds [1].

B2: binds [2].

B3: binds [3].
